Target: IGF2 (Homo sapiens, UniProt P01344)
Sequence (P01344 25-91): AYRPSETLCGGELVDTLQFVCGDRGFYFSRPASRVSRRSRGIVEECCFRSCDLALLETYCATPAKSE

B1: IGF2R domain 11 (protein)
chain: MKSNEHDDCQVTNPSTGHLFDLSSLSGRAGFTAAYSKSGVVYMSICGENENCPPGVGACFGQTRISVGKANKRLRYVDQVLQLVYKDGSPCPSKSGLSYKSVISFVCRPEARPTNRPMLISLDKQTCTLFFSWHTPLACEQAT
How did the Kd turn out when B1 was run?
The Kd was 15 nM.
